US20190390248
Like-named read-outs stand apart in the source and are kept apart here.

Molecular target: human prothrombin, P00734
[1] = scale: nmol thrombin/mL/min/µmol prothrombin/µmol activator

Protein | fold more effective than carinactivase-1 (activation rate constants) | fold more effective than carinactivase-2 (activation rate constants) | fold more effective than ecarin (activation rate constants) | fold more effective than notecarin (activation rate constants) | Thrombin generation rate [1] | N-terminal sequencing of SDS-PAGE bands | percent of S-2238 hydrolysed by the thrombin formed | Thrombin generation rate
OsPA (prothrombin activator purified from Oxyuranus scutellatus venom) (protein) chain 1: AQLREYRLAAQLEDWDYNPQPEELSRLSESDLTFKKIVYREYELDFKQEKPRDELSGLLGPTLRGEVGDSLIIYFKNFATQPVSIHPQSAVYNKWSEGSSYSDGTSDVERLDDAVPPGQSFKYVWNITAEIGPKKADPPCLTYAYYSHVNMVRDFNSGLIGALLICKEGSLNADGAQKFFNREYVLMFSVFDESKNWYRKPSLQYTINGFANGTLPDVQACAYDHISWHLIGMSSSPEIFSVHFNGQTLEQNHYKVSTINLVGGASVTANMSVSRTGKWLISSLVAKHLQAGMYGYLNIKDCGNPDTLTRKLSFRERRRIMKWEYFIAAEEITWDYAPEIPSSVDRRYKAQYLDNFSNFIGKKYKKAVFRQYEDSNFTKPTYAIWPKERGILGPVIKAKVRDTVTIVFKNLASRPYSIYVHGVSVSKDAEGAVYPSDPKENITHGKAVEPGQVYTYKWTVLDTDEPTVKDSECITKLYHSAVDMTRDIASGLIGPPLVCKRKALSIRGVQNKADVEQHAVFAVFDENKSWYLEDNIKKYCSNPSSVKKDDPKFYKSNVMYTLNGYASDRTEVWGFHQSEVVEWHLTSVGTVDEIVPVHLSGHTFLSKGKHQDILNLFPMSGESATVTMDNLGTWLLSSWGSCEMSNGMRLRFLDANYDDEDEGNEEEEEDDGDIFADIFNPPEVVIKKEEVPVNFVPDPESDALAKELGLFDDEDNPKQSRSEQTEDDEEQLMIASMLGLRSFKGSVAEEELKHTALALEEDAHASDPRIDSNSAHNSDDIAGRYLRTINRRNKRRYYIAAEEVLWDYSPIGKSQVRSLPAKTTFKKAIFRSYLDDTFQTPSTGGEYEKHLGILGPIIRAEVDDVIEVQFRNLASRPYSLHAHGLLYEKSSEGRSYDDNSPELFKKDDAIMPNGTYTYVWQVPPRSGPTDNTEKCKSWAYYSGVNPEKDIHSGLIGPILICQKGMIDKYNRTIDIREFVLFFMVFDEEKSWYFPKSDKSTCEEKLIGVQSRHTFPAINGIPYQLQGLMMYKDENVHWHLLNMGGPKDVHVVNFHGQTFTEEGREDNQLGVLPLLPGTFASIKMKPSKIGTWLLETEVGENQERGMQALFTVIDKDCKLPMGLASGIIQDSQISASGHVGYWEPKLARLNNTGMFNAWSIIKKEHEHPWIQIDLQRQVVITGIQTQGTVQLLKHSYTVEYFVTYSKDGQNWITFKGRHSKTQMHFEGNSDGTTVKENHIDPPIIARYIRLHPTKFYNTPTFRIELLGCEVEGCSVPLGMESGAIKDSEITASSYKKTWWSSWEPFLARLNLKGRTNAWQPKVNNKDQWLQIDLQHLTKITSIITQGATSMTTSMYVKTFSIHYTDDNSTWKPYLDVRTSMEKVFTGNINSDGHVKHFFNPPILSRFIRIIPKTWNQYIALRIELFGCEVF chain 2: ANSLYEEFRSGNIERECIEERCSKEEAREVFEDDEKTETFWNVYVDGDQCSSNPCHYRGTCKDGIGSYTCTCLSGYEGKNCERVLYKSCRVDNGNCWHFCKPVQNDIQCSCAEGYLLGEDGHSCVAGGNFSCGRNIKTRNKREASLPDFVQSQNAILLKKSDNPSPDIRIVNGMDCKLGECPWQAVLVDEKEDAFCGGTILSPIYVLTAAHCINQTKMISVVVGEINISRKNPGRLLSVDKIYVHQKFVPPKKGYEFYEKFDLVSYDYDIAILQMKTPIQFSENVVPACLPTADFANQVLMKQDFGIVSGFGRIFEKGPQSKTLKVLKVPYVDRHTCMLSSESPITPTMFCAGYDTLPRDACQGDSGGPHITAYRDTHFITGIVSWGEGCAQTGKYGVYTKVSKFILWIKRIMRQKLPSTESSTGRL | more than 200 times then carinactivase-1 | more than 20 times more effective than ecarin and carinactivase-2 | more than 20 times more effective than ecarin and carinactivase-2 | approximately 1000 times more effective than notecarin | 44 | – | – | –
notecarin from Notechis scutatus venom (protein) SNSLFEEIRPGNIERECIEEKCSKEEAREVFEDNEKTETFWNVYVDGDQCSSNPCHYRGTCKDGIGSYTCTCLPNYEGKNCEKVLFKSCRAFNGNCWHFCKRVQSETQCSCAESYLLGVDGHSCVAEGDFSCGRNIKARNKREASLPDFVQSQKATVLKKSDNPSPDIRIVNGMDCKLGECPWQAVLINEKGEVFCGGTILSPIHVLTAAHCINQTKSVSVIVGEIDISRKETRRLLSVDKIYVHKKFVPPNSYYQNIDRFAYDYDIAIIRMKTPIQFSENVVPACLPTADFAKEVLMKQDSGIVSGFGRTQSIGYTSNILKVITVPYVDRHTCMLSSNFRITQNMFCAGYDTLPQDACQGDSGGPHITAYGDTHFVTGIISWGEGCARKGKYGVYTKVSNFIPWIKKIMSLK | – | – | – | – | 0.043 | confirmed conversion of prothrombin to alpha-thrombin by PtPA and notecarin | then carinactivase-1 and lastly notecarin (<1%) being the least efficient | –
ecarin from Echis carinatus venom (protein) IILGSGNVNDYEVVYPQKVTALPKGAVQQPEQKYEDAMQYEFEVKGEPVVHLEKNKELFSEDYSETHYSSDDREITTNPSVEDHCYYHGRIQNDAESTASISACNGLKGHFKLRGETYFIEPLKIPDSEHAVYKYENIENEDEAPKMCGVTQDNWESDEPIKKTLGLIVPPHERKFEKKFIELVVVVDHSMVTKYNNDSTAIRTWIYELNTVNEIYLPFNIRVALVGLEFWCNGDLINVTSTADDTLHSFGEWRASDLLNRKRHDHAQLLTNVTLDHSTLGITFVYGCKSDRSVELILDYSNITFNMAYIIAHEMGHSLGMLHDTKFCTCGAKPCIMFGKESIPPPKEFSSCSYDQYNKYLLKYNPCILDPPLRKDIASPAVCGNEIWEEGEECDCGSPADCRNPCCDAATCKLKPGAECGNGECCDKCKIRKAGTECRPARDDCVAEHCTGQSAECPRNEFQRNGQPCLNNSGYCYNGDCPIMLNQCIALFSPSATVAQDSCFQRNLQGSYYGYCTKEIGYYGRFPCAPQDVKCGRLYCLDNSFKKNMRCKNDYSYADENKGIVEPGTKCEDGKVCINRKCVDVNTAY | – | – | – | – | – | – | – | 2.76
